According to publication PMC4132707, “A dimeric state for PRC2” (Nucleic Acids Research, 2014):

Target: T1, MBP-EZH2 (uncleavable MBP fusion, three-alanine linker) (human, UniProt Q15910-2 2-751)
T1 construct: forward primer starts at codon 2 after the three alanines, reverse primer holds the stop codon; A short linker of three alanine residues connects MBP and EZH2; no PreScission site between them; Present as a subunit of the co-purified PRC2 5m complex; also called tagged EZH2; MBP-tagged EZH2; source: Sf9, baculovirus, co-expressed and co-purified with the other PRC2 subunits (amylose resin, …)
T1 sequence (Q15910 other isoform, or with tags, fused parts or gaps): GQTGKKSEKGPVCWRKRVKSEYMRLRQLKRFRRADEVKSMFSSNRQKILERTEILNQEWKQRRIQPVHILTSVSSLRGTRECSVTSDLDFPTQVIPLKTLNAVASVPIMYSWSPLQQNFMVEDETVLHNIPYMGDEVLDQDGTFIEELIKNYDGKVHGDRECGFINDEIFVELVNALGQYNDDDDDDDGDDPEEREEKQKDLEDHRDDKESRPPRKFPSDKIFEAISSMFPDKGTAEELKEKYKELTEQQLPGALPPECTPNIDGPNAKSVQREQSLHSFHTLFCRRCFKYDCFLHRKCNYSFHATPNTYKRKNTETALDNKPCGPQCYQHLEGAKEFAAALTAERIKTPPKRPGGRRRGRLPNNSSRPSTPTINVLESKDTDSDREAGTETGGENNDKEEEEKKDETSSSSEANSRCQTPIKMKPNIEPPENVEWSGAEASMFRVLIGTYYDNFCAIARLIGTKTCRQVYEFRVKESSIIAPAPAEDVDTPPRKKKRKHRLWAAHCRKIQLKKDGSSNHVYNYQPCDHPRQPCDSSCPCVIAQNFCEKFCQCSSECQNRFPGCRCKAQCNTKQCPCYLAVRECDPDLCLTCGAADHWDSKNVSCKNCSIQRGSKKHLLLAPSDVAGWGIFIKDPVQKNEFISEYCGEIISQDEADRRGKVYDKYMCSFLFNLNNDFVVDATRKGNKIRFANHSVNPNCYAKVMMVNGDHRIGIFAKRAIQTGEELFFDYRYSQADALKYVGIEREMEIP
Experiment: pull-down; called co-immunoprecipitation by the paper; 0.1 mg purified nucleic acid-free PRC2 5m co-expressed with both MBP-EZH2 (uncleavable) and untagged EZH2, bound to amylose beads 30 min at 4°C in 10 mM Tris-HCl pH 7.5, 250 mM NaCl, 1 mM TCEP, washed twice, eluted with 20 mM maltose; immunoblotting (semi-quantitative for EZH2)
Settings: both partners purified

B1: EZH2, untagged (cleavable MBP tag removed) (natural protein)
chain: not shown
notes: forward primer starts at codon 2 (GQTGKKS), reverse primer holds the stop codon; Present as a subunit of the co-purified PRC2 complex, never isolated alone; also called untagged EZH2; source: Sf9, baculovirus, co-expressed and co-purified with the other PRC2 subunits (amylose resin, PreScission cleavage, SEC); not shown: His6, N-terminal, cleaved; MBP, N-terminal, cleaved
- ratio of tagged to untagged EZH2 in the MBP pull down: ~3 tagged:untagged
